Measured values from patent US20080318246A1 (ALBERT EINSTEIN COLLEGE OF MEDICINE OF YESHIVA UNIVERSITY, published 2008).
Square brackets hold non-standard residues; d marks the D form. Carminic acid = quencher bound covalently; Ala(Pyr) = not defined here; Dap = NC[C@H](N)C(=O)O

Target: T1, 14-3-3τ (UniProt P27348 1-245)
T1 sequence (looked up): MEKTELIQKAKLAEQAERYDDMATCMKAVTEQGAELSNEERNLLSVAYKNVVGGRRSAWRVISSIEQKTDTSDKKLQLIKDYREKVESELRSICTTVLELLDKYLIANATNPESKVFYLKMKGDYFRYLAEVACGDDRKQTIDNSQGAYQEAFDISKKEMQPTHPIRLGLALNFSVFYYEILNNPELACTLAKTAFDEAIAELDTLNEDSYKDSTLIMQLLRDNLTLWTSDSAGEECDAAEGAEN
Assay: cell-based or functional assay

fold increase in fluorescence upon phosphorylation by PKA: 2.2 fold
Binder: Ac-G[Ala(Pyr)]TGRR[Dap](Carminic acid)SLPA-NH2 (reading uncertain; also: Ser phosphorylated by PKA in the assay) [P14, AcGAla(Pyr)TGRRDap(Carminic acid)SLPA-amide, serine-phosphorylated by PKA in the assay]
